In assay [1] the target is T1, Myc-CUL3 (Arabidopsis thaliana, UniProt Q9ZVH4 1-732).
T1 construct: also called AtCUL3A (AT1G26830); not shown: N-terminal Myc tag (pEG203)
T1 sequence (looked up): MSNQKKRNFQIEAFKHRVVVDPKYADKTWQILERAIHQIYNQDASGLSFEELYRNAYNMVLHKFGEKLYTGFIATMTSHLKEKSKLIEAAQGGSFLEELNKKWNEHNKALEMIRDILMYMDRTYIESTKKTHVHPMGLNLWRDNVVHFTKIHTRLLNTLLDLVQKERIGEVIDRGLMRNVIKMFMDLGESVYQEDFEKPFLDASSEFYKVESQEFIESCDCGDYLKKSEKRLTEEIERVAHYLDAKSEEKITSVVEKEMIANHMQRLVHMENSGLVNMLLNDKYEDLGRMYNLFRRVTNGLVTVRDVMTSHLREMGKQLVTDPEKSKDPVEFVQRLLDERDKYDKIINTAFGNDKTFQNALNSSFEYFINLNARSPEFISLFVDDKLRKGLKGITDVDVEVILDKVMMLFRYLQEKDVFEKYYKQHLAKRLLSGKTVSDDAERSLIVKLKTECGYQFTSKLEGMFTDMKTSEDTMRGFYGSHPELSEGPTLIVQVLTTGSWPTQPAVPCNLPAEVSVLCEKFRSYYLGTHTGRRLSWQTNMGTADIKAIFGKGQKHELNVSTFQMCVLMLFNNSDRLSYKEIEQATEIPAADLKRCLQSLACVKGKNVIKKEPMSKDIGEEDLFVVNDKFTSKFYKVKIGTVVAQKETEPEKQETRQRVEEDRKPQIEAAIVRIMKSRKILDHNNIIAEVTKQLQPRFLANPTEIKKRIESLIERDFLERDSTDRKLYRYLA
The experiment in a line: co-IP, co-expression in N. benthamiana, 1 mM SA.

In assay [2] the target is T1, Myc-CUL3. As to the kind of experiment: pull-down, N. benthamiana, SA dose response.
The target of assay [3] is T1, Myc-CUL3. The experiment in a line: co-IP, N. benthamiana, 1 mM SA 5 hr.

Numbering of substitutions follows the chain as printed.

B1: NPR1-HA (other)
chain: MDTTIDGFADSYEISSTSFVATDNTDSSIVYLAAEQVLTGPDVSALQLLSNSFESVFDSPDDFYSDAKLVLSDGREVSFHRCVLSARSSFFKSALAAAKKEKDSNNTAAVKLELKEIAKDYEVGFDSVVTVLAYVYSSRVRPPPKGVSECADENCCHVACRPAVDFMLEVLYLAFIFKIPELITLYQRHLLDVVDKVVIEDTLVILKLANICGKACMKLLDRCKEIIVKSNVDMVSLEKSLPEELVKEIIDRRKELGLEVPKVKKHVSNVHKALDSDDIELVKLLLKEDHTNLDDACALHFAVAYCNVKTATDLLKLDLADVNHRNPRGYTVLHVAAMRKEPQLILSLLEKGASASEATLEGRTALMIAKQATMAVECNNIPEQCKHSLKGRLCVEILEQEDKREQIPRDVPPSFAVAADELKMTLLDLENRVALAQRLFPTEAQAAMEIAEMKGTCEFIVTSLEPDRLTGTKRTSPGVKIAPFRILEEHQSRLKALSKTVELGKRFFPRCSAVLDQIMNCEDLTQLACGEDDTAEKRLQKKQRYMEIQETLKKAFSEDNLELGNSSLTDSTSSTSKSTGGKRSNRKLSHRRR
notes: Full-length wild-type NPR1, transiently expressed in N. benthamiana; also called HA-fused NPR1; WT NPR1; not shown: C-terminal HA tag (pLN462)
Consider B1, for which, in the assay with Myc-CUL3 [1], the binding result is on record as “binds”.

B2: sim3-HA (other)
chain: B1 chain with I345A, L346A, L348A
notes: SUMOylation-deficient mutant of NPR1; also called npr1sim3; HA-fused sim3; not shown: C-terminal HA tag (pLN462)
Turning to B2, the binding result with Myc-CUL3 [2] is reported as “binds”.

B3: rdr2-HA (other)
chain: B1 chain with C378A, C385A, C394A
notes: not shown: C-terminal HA tag (pLN462)
On to B3, for which, in the assay with Myc-CUL3 [3], the binding result is given as “binds”.
